The nature of this series: yeast display, Sf9 membrane polyspecificity reagent, FACS + sequencing; frameworks hold sequencing errors. The gist of the method: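 Sorting gates, low and high (top ~1%), were placed on anti-HA fluorescence to track expression and on streptavidin fluorescence to track reagent binding. A clone's polyreactivity label is taken from the gate it came out of. The reagent was 10% biotinylated, detergent-solubilized Sf9 membrane, applied for 1 hour at 4 °C to galactose-induced yeast display cells.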
Turning to “QVQLVESGGGLVQPGGSLSLSCAASGLTFYSYAMGWSRQAPGKERELVAAITSSGSITYYADSVKGRFTISRDNAKNTVYLQMNSLTPEDTAVYYCAARPYRVRGQRFEGNYCGQGTQVTVSS”, the “polyreactivity (PSR sort gate)” value is given as “high polyreactivity”.

Take “QVQLVESGGGLVQAGGSLRLTCAASGSTFSSYGMGWYRQAPGKERELVASITIRGGSTYYADSVKGRFTISRDNAKNTVYLQMNSLKPEDTAVYYCAADVTNRGTWVIYGYYYWGQGTQVTVSS”: the “polyreactivity (PSR sort gate)” value is on record as “low polyreactivity”.

As for “QVQLVESGGGLVQAGGSLRLSCAASGSTFQTYAMGWYRQAPGKERELVAAISFNGGSTYYADSVKGRFTISRDNAKNTVYLQMNSLKPEDTAVYYCAVEYTWASALYDGRHDYWGQGTQVTVSS”, the “polyreactivity (PSR sort gate)” value is given as “high polyreactivity”.

As to “QVQLVESGGGLVQAGGSLRLSCAASGRIFDDNAMGWYRQAPGKERELVAAITGPDDSTDYADSVKGRFTISRDNAKNTVYLQMNSLKPEDTAVYYCAKDAGYWYYWNGYWGQGTQVTVSS”, the “polyreactivity (PSR sort gate)” value is given as “high polyreactivity”.

Take “QVQLVESGGGLVQAVGSLRLSCAASVFIFPYYDMGWYRQAPGKEREFVAAITKSGGRTYYADSVKGRFTISRDNAKNTVYLHMNSLKPEDTAVYYCNADDPDYLVSYRYDYWGLGTQVTVSS”: the “polyreactivity (PSR sort gate)” value was “low polyreactivity”.

With “QVQLVESGGGLVQAGGSLRLSCAASGITFYVYAMGWYRQAPGKERELVAAISRRGGSTSYADSVKGRFTISRDNAKNTVYLQMNSLKPEDTAVYYCAAGPFYGGIVRRYDYWGQGTQVTVSS”, the “polyreactivity (PSR sort gate)” value is on record as “low polyreactivity”.

On to “QVQLVESGGGLVQAGGSLRLSCAASGSTFRKDAMGWYRQAPGKERELVAAISSSGGDTYYADSVKGRFTISRDNAKNTVYLQMNSLKPEDTAVYYCNTKRPYRVYFRYGYWGQGTQVTVSS”, for which the “polyreactivity (PSR sort gate)” value is “high polyreactivity”.

“QVQLVESGGGLVQAGGSLRLSCAASGSIFGSNAMGWYRQAPGKERELVAAITNTGRTNYADSVKGRFTISRDYAKNTVYLQMNSLKPEDTAVYYCNADWRRSHAYGYWGQGTQVTVSS”: the “polyreactivity (PSR sort gate)” value is given as “low polyreactivity”.

Consider “QVQLVESGGGLVQAGGSLRLSCAASGSIIVGYAMGWYRQAPGKERELVAAISWSGGRTYYADSVKGRFTISRDNAKNTVYLQMNSLKPEDTAVYYCATVTKGSLRYNYNYWGQGTQVTVSS”, for which the “polyreactivity (PSR sort gate)” value is given as “high polyreactivity”.

Regarding “QVQLVESGGGLVQAGGSLRLSCAASGSIFLRYAMGWYRQAPGKERELVAGITSGGSTNYADSVKGRFTISRDNAKNCVYLQMNSLKPEDTAVYYCNKDLPDWGHEWNGDSWGQGTQVTVSS”, the “polyreactivity (PSR sort gate)” value is reported as “low polyreactivity”.

As to “QVQLVDSCGGLVQAGGSLSLSCAASGRTFTRYAMGWYRQAPGKERELVASITNGGGTYYADSVKGRFTISRDNAKNTVYLQMNSLKPEDTAVYYCAKAERVTSHIYYSWGQGTQVTVSS”, the “polyreactivity (PSR sort gate)” value is on record as “low polyreactivity”.

Consider “QVQLVESGGGLVQAGGSLRLSCAASGNIFKYYAMGWYRQAPGKERELVAAISWGGSRTYYADSVKGRFTISRDNAKNTVYFQMNILKPEDSAVYYCAAAPRYSWTSVPRYDYWGLGTQVTVSS”, for which the “polyreactivity (PSR sort gate)” value was “high polyreactivity”.

For “QVQLVESGGGLVQAGGSLRLSCAASGSIFLHNAMGWYRQAPGKDRELVAAISGTGGRTYYADSVKGRFTISRDNAKNTVYLQMNSLKPEDTAVYYCAKAARTRGGYGYWGQGTQVTVSS”, the “polyreactivity (PSR sort gate)” value is on record as “high polyreactivity”.

As to “QVQLVESGGGLGQAGGSLRLSCAPSGFIFTLYAMGWYRQAPGKERELVAAIDTSVASTYYADSVKGRFTLSRENAKYTVYLQMNSLKPEDTAVYYCNADGASYLILSYYQPYDYWGQGTQVTVSS”, the “polyreactivity (PSR sort gate)” value is listed as “low polyreactivity”.

For the sequence “QVQLVESGGGLVQAGGSLRLSFAASGITFASNTMGWYRQAPGKERELVAAITRGDNTYYADSVKGRFTISRDNAKNTVYLQMKSLKPEDTAVYYCAKDPHGVEPVPDGYDYWGQGTQVTVSS”, the “polyreactivity (PSR sort gate)” value is recorded as “low polyreactivity”.

For the sequence “QVQLVESGGGLVQAGGSLRLSCAASGSISYYNAMGWYRQAPGKERELVATITDSGGSTYYADSVKGRFTISRDNAKNTVYLQMNSLKPEDTAVYYWAVDYSEWYSIYEYWGQGTQVTVSS”, the “polyreactivity (PSR sort gate)” value was “low polyreactivity”.

Regarding “QVQLVESGGGLVQAGGSLRLRWDASGRILWYNAMGWYRQAPGKERELVAAIRSGGRTHYADSVKGRFTISRDNAKNTVYLQMNCLKPEDTAVYYCAARSVPYPYRRNPYDYWGQGTQVTVSS”, the “polyreactivity (PSR sort gate)” value is listed as “high polyreactivity”.

For “QVQLVESGGGLVQAGGRLRLSCAASGFIFVRNAMGWYRQAPGKERELVAAISRGGGRTYYADSVKGRFTISRDNAKNTVYLQINRLKPEDTAVYYCNTQSVGVQFVKDNYWGQGTQVTVSS”, the “polyreactivity (PSR sort gate)” value is listed as “high polyreactivity”.

For “QVQLVESGGGLVQAGGSLRLSCAPSGITFSHYAMGWYRQAPGKERELVAGITWSGGRTYYADSVKGRFTISRDNAKNTVYLQMNSLKPEDTAVYYCAPIHRTGYDMDYWGLGTQVTVSS”, the “polyreactivity (PSR sort gate)” value was “low polyreactivity”.

Consider “QVQLVESGGGLVQAGGSLRLSCAASGSTFKYYTMGWYIQAPGKERELVAGITLSGTTTYYADSEKGRFTISRDNAKNTVYLQMNSLKPEDTAVYYCAADYYHDFNAYYYWGQGTQVTVSS”, for which the “polyreactivity (PSR sort gate)” value was “low polyreactivity”.

For the sequence “QVQIVESGGGLVQAGGSLRLSCAASGRTIGVYAMGWYRQAPRKERELVAAITGDGTKDYADSVKGRFRFSRAISKITVYLQMNSLKPEDTAVYYCAVGGAGSDDYWGQGTQVTVSS”, the “polyreactivity (PSR sort gate)” value was “low polyreactivity”.

Regarding “QVQLVESGGGLVQAGGSLRISCAASGSTFEYYAMGWYRQAPGKERELVATISIDGRTNYADSVKGRFTISRDNAKNTVYLQMNSLKPEDTAVYYCAARPYWRHRYDYWGQGTQVTVSS”, the “polyreactivity (PSR sort gate)” value was “low polyreactivity”.

Take “QVQLVESGGGLVQAGGSLRLSFASSGRIFIAYAMGWYRQAPGIERELVAAITSGGGTYYADSVKGRFTISRDNAKNTVYLQMNSLKPVDTAVYYCAAACGRRYPDKFVAITPTYDFWGQGTQVTVSS”: the “polyreactivity (PSR sort gate)” value is “low polyreactivity”.

Turning to “QVQLVESGGGLVQEGCSLRLICAASGSIFGYYAMGWYRQAPGKERELVAAISTAGSTNYADSVKGRFTISRDNAKNTVYLQMNSLKPEDTAVYYCAKKSSWYYPERFDYWGQGTQVTVSS”, the “polyreactivity (PSR sort gate)” value is “low polyreactivity”.

For “QVQLVESGGGLVQAGGSLRLSCAASGRIFKPYVMGWYRQAPGKERELGAAISWGGGRTYYADSVKGRFTISRDNAKNTVYLQMNSLKPEDTAVYYCAAPRRFDYDWGQGTQVTVSS”, the “polyreactivity (PSR sort gate)” value is recorded as “low polyreactivity”.

Consider “QVQLVESGGGLVQAGGSLRLSCAASGFIFYPYAMGWYRQAPGKVRELVAVITSGGRTYYADSVKGRFTISRDNAKNTVYLQMNSLKAEDTAVYYCAARYGRIHWKANWPEYGYWGQGTQVTVSS”, for which the “polyreactivity (PSR sort gate)” value was “low polyreactivity”.

Regarding “QVQLVESGGGLVQAGGSLRLSCAASGFIIVYYAMGWYRQAPGKERELVAAITSSGGSTYYADSVKGRFTISRDNAKNTVYLQMNSLKPEDTAVYYCNRVWYATDFVNTMGYWGQGTQGTVSS”, the “polyreactivity (PSR sort gate)” value is listed as “low polyreactivity”.

“QVQLVESGGGLVQAGGSLRLSCAASGSTFGYYAMGWYRQAPGKERELVATINWSGGSTYYADSEKGRFTISRDNAKNTVYLQMISLKPEDTAVYYCAADPYLQYYWAYDYWGQGTQVTVSS”: the “polyreactivity (PSR sort gate)” value was “low polyreactivity”.

Turning to “QVQLVESGGGLFQAGGSLRLSCAASGFTFGHNSMGWYRQAPGKERELVAAISYSGGSTYYADSVKGRFTSSRDNAKNTVYLQMNSLKPEDTAVYYCAKRSHTDSVPGVYNEGDFWGQGTQVTVSS”, the “polyreactivity (PSR sort gate)” value is “low polyreactivity”.

Turning to “QDQLVESGGGLVQAGGSLRLRCAASGRTFEGNAMGWYRQAAGTEGELVAAMTSGGPTNSADSVKGRFTISRDNAKNTVYFQMNSLKPEDTAVYYCADETRDRSTYFPGQAYDYWGQGTQVTVSS”, the “polyreactivity (PSR sort gate)” value is “low polyreactivity”.

As to “QVQLVESGGGLVQAGGSLRLSCAASGFTFRSYAMGWYRQAPGKERELVASISWSGTSTYYADSVKGRFTISRDNAKNTVYLQMNSLKPEDTAVYYCNKYPSFYGAGYYWGQGTQVTVSS”, the “polyreactivity (PSR sort gate)” value was “high polyreactivity”.

Regarding “QVQLVESGGGLVQAGGSLRLSCAASGLTFERYAMGWNREAPGKERELVAAISGSGGSTYYADSVKGRFTISRDNAKNTVYLQMNSLTPEDTAVYYCAAYPTVWYDYWGQGTQVTVSS”, the “polyreactivity (PSR sort gate)” value is “high polyreactivity”.

Turning to “QVQLVESGGGLVQAGGSLRLSCAASGRIFVDNDMGWYRQAPGKERELVAAISGNGGNTNYADSVKGRFTISRDNAKNTVYLQMNSLKPEDTAVYYCAATYPVGHVYRYDYWGQGTQVTVSS”, the “polyreactivity (PSR sort gate)” value is “low polyreactivity”.

Take “QVQLVESGGGLVQAGGSLRLSCAASGSTFGNNAMGWYRQAPGKERELVASISWSSGRTYYADSVKGRFTISRDNAKNTVYLQMNSLKREDTAVYYCAAPLPVDVVWDRSAEVRYDYWGQGTQVTVSS”: the “polyreactivity (PSR sort gate)” value was “low polyreactivity”.

For the sequence “QVQLVESGGGLVQAGGSRRLSCAASGSTFYGYAMGWYRQAPGKEREFVAAITTSGGSTYYADSVKGRFTISRDNAKNTVYLQMNSLKPEDTAVYYCARDLYTEYRWGRLTYDYWGQGTQVTVSS”, the “polyreactivity (PSR sort gate)” value is given as “low polyreactivity”.

“QVQLVESGGGLVQAGGSLRLSCAASGIIFDDYAMGWYRQAPGKERELVAAINSNGGTTYYADSVKGRFTISRDNAKNTVYLHMNSLKPEDTAVYYCAKAYPGTYREYDYWGQGTQVTVSS”: the “polyreactivity (PSR sort gate)” value was “high polyreactivity”.

Take “QVQLVESGGGLVQAGGSLRLSCAASGRILGFNVMGWYRQAPGKERELVAAITTSGGSTYYADSVKGRFTISRDNAKNTVYLQMNSLKPEDTAVYYCAARYRRFRFTHYDYWGQGTQVTVSS”: the “polyreactivity (PSR sort gate)” value is on record as “high polyreactivity”.

As for “QVQLVESGGGLVQAGGSLRLSCAASGITLYEYAMGWYRQAPGKERELVAAMSTSGGRTRYADSVKGRFTISRDNAKNTVYLQMNSLKPEDTAVYYCNRLYGPGFKSVYGYDYWGQGTQVTVSS”, the “polyreactivity (PSR sort gate)” value is given as “high polyreactivity”.

Consider “QVQLVESGGGLVQAGGSLRLSCAASGFILLDNAMGRYRQAPVKEREFVASINISGDRTFYADSVKGRFTISRDNAKNTVYLQMNSLKPEDTAVYYCAKEPGLGRRSTTAYDYWGQGTQVTVSS”, for which the “polyreactivity (PSR sort gate)” value is reported as “low polyreactivity”.

“QVQLVESGGGLVQAGGSLRLSCAASGRTVGYNAMGWYRQAPGKERELVAAISRSGDSTYYADSVKGRFTISRDNAKNTVYLQMNSLKPEDTAVYYCATRYVTTGYDYWGQGTQVTVSS”: the “polyreactivity (PSR sort gate)” value was “low polyreactivity”.

For the origin of these results see the nanobody polyreactivity screen of Harvey et al. (2022).
